From paper doi:10.1101/2021.08.23.457419 (bioRxiv, 2021)
Where no end group is shown, it is not given here.

Assays:
[1] = molecular target: T1, SARS-CoV-2 main protease (M^pro), wild type (SARS-CoV-2, UniProt P0DTD1); assay: […]
[2] = molecular target: T1, SARS-CoV-2 main protease (M^pro), wild …; assay: cell-based or functional assay

Binder: YLQYAVLRHKRREC (also: cyclic, mode of cyclization not given here) [cyclic peptide 1]
- Ki [1]: 14 nM
- IC50, inhibition of M^pro proteolytic activity (FRET substrate cleavage) [2]: 70 nM
